Measured values from patent US20090202499A1 (University of California, published 2009).

Tests used:
[1] = target: T1, purified HLA-B*5401 (human); assay: competition radioimmunoassay on purified HLA, radiolabeled standard peptide
T1 construct: Purified MHC class I molecule incubated with human b2m; also called B*54011
Excerpt: (§1) Supertype analysis. […] Under the conditions utilized, where [label]<[MHC] and IC₅₀≧[MHC], the measured IC₅₀ values are reasonable approximations of the true Kd values.

[2] = target: T2, purified HLA-B*0702 (human); assay: as above
T2 construct: Purified MHC class I molecule incubated with human b2m; complexes captured with W6/32 antibody; also called HLA-B7; immobilized purified HLA-B7 molecule
Excerpt: as §1

[3] = target: T3, purified HLA-B*0801 (human); assay: as above
T3 construct: Purified MHC class I molecule incubated with human b2m; not officially part of the HLA-B7 supertype
Excerpt: as §1

[4] = target: T2, purified HLA-B*0702; assay: competition solid-phase radioimmunoassay on purified HLA-B7, radiolabeled standard peptide
Excerpt: Next, we assessed the actual binding avidity for HLA-B7 (HLA-B*0702). Two independent assays were used: binding stabilization assay on T2-B7 cells by flow cytometry (12) and a competitive solid-phase radioimmunoassay on immobilized purified HLA-B7 molecule (35).

[5] = target: T4, purified HLA-B*5301 (human); assay: competition radioimmunoassay on purified HLA, radiolabeled standard peptide
T4 construct: Purified MHC class I molecule incubated with human b2m
Excerpt: as §1

[6] = target: T5, purified HLA-B*5101 (human); assay: as above
T5 construct: Purified MHC class I molecule incubated with human b2m
Excerpt: as §1

[7] = target: T6, purified HLA-B*3501 (human); assay: as above
T6 construct: Purified MHC class I molecule incubated with human b2m
Excerpt: as §1

Binder	IC50 [1]	IC50 [2]	IC50 [3]	IC50 [4]	IC50 [5]	IC50 [6]	IC50 [7]
RPSFLLSSL (Synthetic 9mer peptide of human telomerase reverse transcriptase) [hTRT peptide p342 (RPSFLLSSL)]	12600 nM	–	–	–	–	–	–
FVRACLRRL (Synthetic 9mer peptide of human telomerase reverse transcriptase) [hTRT peptide p464 (FVRACLRRL)]	18800 nM	4.1 nM	123 nM	4.1 nM	–	–	–
AGRNMRRKL (Synthetic 9mer peptide of human telomerase reverse transcriptase) [hTRT peptide p966 (AGRNMRRKL)]	34100 nM	–	–	–	–	–	–
DPRRLVQLL (Synthetic 9mer peptide of human telomerase reverse transcriptase) [hTRT peptide p444 (DPRRLVQLL)]	21900 nM	–	–	–	–	–	–
LPGTTLTAL (Synthetic 9mer peptide of human telomerase reverse transcriptase) [hTRT peptide p1107 (LPGTTLTAL)]	–	0.96 nM	192 nM	0.96 nM	120 nM	–	–
LPSDFKTIL (Synthetic 9mer peptide of human telomerase reverse transcriptase) [hTRT peptide p1123 (LPSDFKTIL)]	19900 nM	11 nM	74 nM	11 nM	2.4 nM	1620 nM	5 nM
